experiment: yeast display, Sf9 membrane polyspecificity reagent, FACS + sequencing; frameworks hold sequencing errors
Method in brief: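 Galactose-induced (36–48 hours) yeast carrying a synthetic nanobody display library were exposed to 10% biotinylated, detergent-solubilized Sf9 membrane reagent at 4 °C for 1 hour. FACS followed streptavidin microbead enrichment, using low and high (top ~1%) gates for expression (anti-HA) and reagent binding (streptavidin). Colony PCR, MiSeq 2 × 250 sequencing and CDR-length filtering followed. Labels for polyreactivity reflect the gate of origin.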

Sequence	polyreactivity (PSR sort gate)
QVQLVESGGGLVQAGGSLRLSCAASGSIFRPNVMGWYRQEPGKERELVATISWSGGSTYYADSVKGRFTISRDNASNTVYLQMNSLKPEDTAVYYCAALWPYGYWGQGTEVTVSS	low polyreactivity
QVQLVESGGGLVQAGGSLRLSCAASGSIFRPYAMGWYRPAPGQDRELVAAISSSGGGTYYADSVKGRFTISRDNAKKTVYLQMNSLKPEDTAVYLYGSWGQGTQVTVSS	low polyreactivity
QVQLVESGGGLVQAGGSLRLSCAASGSIFRPYAMGWYRQAPGKERELVAAISWRSGRTYYADSVKGRFTISRDNAKNTVYLQMNSLKPEDTAVYYCAADLASYAYRYDYWGQGTQVTVSS	high polyreactivity
QVQLVESGGGLVQAGGSLRLSCAASGSIFRQYAMGLSRQAPGKERELVAAITYSGGNTYYADSVKGRFTISRDNAKNPVYLQLNSLKPEDTAVYYCAADYGSRSWEYTYWGQGTQVTVSS	low polyreactivity
QVQLVESGGGLVQAGGSLRLSCAASGSIFRQYAMGWYRQAPPKDRELVAAISSVGRTYYADSVKGRFTISRDNAKNTVYLQMNSLKPEDTAVYYCAARPYKFARYDYWGQGTQVTVSS	high polyreactivity
QVQLVESGGGLVQAGGSLRLSCAASGSIFRRNSMGWYRPAPGKERELVAAISSIGSSTYYADSVKGRFTISRDNAKNTVYLQMNSLKPEDTAVYYCAALYVQGSHTYGYWGQGTQVTVSS	high polyreactivity
QVQLVESGGGLVQAGGSLRLSCAASGSIFRRYALGWYRQAPGKERELVAAISYSGGSTYYADSVKGRFTISRDNAKNTVYLQMNSLKPEDTAVYYCAVVTRKGLYDYWGQGTQVTGSS	high polyreactivity
QVQLVESGGGLVQAGGSLRLSCAASGSIFRRYAMGWYRPAPGKERELVAAITNRGGTTYYADSVKGRFTISRDNAKNTVYLQMNSLNPEDTAVYYCATALWVRYYGQGGYIRRYDYWGQGTQVTVSS	high polyreactivity
QVQLVESGGGLVQAGGSLRLSCAASGSIFRRYAMGWYRPAPGTERELVAAISYSGGSTYYADSVKGRFTISRDNAKNTVYLQMNSLKPEDTAVYYCAADESRYDYWGQGTQVTVSS	high polyreactivity
QVQLVESGGGLVQAGGSLRLSCAASGSIFRRYAMGWYRQAPGKERELVAAISSNGGSTYYADSVKGRFTISRDNAKNTVYLQMNSLKPEDTAVYYCNAPPLYRDEYWGQGTQVTVSS	high polyreactivity
QVQLVESGGGLVQAGGSLRLSCAASGSIFRSNAMGWYRQAAGKERELVAAIDYSGTSTTYADSVKGRFTISRDNAKNTVYLQMNSLKPEDTAVYYCNADGYYRGYWSGYEYWGQGTQVTVSS	low polyreactivity
QVQLVESGGGLVQAGGSLRLSCAASGSIFRSNAMGWYRQAPGKEREFVAAITSRSSSTYYADSVKGRFTISRDNAKNTVYLQMNSLKPEDTAVYYCAARYQHYFTGGDYWGQGTQVTVSS	low polyreactivity
QVQLVESGGGLVQAGGSLRLSCAASGSIFRSNAMGWYRQAPGKERELVAAITQSGDTTNYADSVKGRFTISRDNAKNTVYLQMNSLKPEDTAVYYCNADTDRYWPYEYDYWGQGTQVTVSS	low polyreactivity
QVQLVESGGGLVQAGGSLRLSCAASGSIFRSNDMGWYRQAPGKERELVARITSSVGSTYYADSVKGRFTISRDNAKNTVYLQMNSLKAEDTAVYYGAKRYYHYPYGYRDYDYWGQGTQVTVSS	low polyreactivity
QVQLVESGGGLVQAGGSLRLSCAASGSIFRSNTMGWYRQAPGKERELVAGISYSGGSTYADSVKGRFTISRDNAKNTVYLQMNSLKTEDTAVYYCARRVYSYVVLYFSYYYWGQGTQVTVSS	low polyreactivity
QVQLVESGGGLVQAGGSLRLSCAASGSIFRSYAKGWYRQAPGKERELVAAISSSGGRKYYADSVKGRFTISRDNAKNTVYLQMNSLKPEDTAVYYCAAYGAGGYKYDYWGQGTQVTVSS	low polyreactivity
QVQLVESGGGLVQAGGSLRLSCAASGSIFRSYALGWYRQAPGKERELVAAITWSGGRTYYADSVKGRFTISRDNAKNTVYLQMNSLKPEDTAVYYCNADVWWDTWFLDGYDYWGQGTQVTVSS	high polyreactivity
QVQLVESGGGLVQAGGSLRLSCAASGSIFRSYAMGWYRPAPGKERELVAAISSGGRTKYADSVKGRFTISRDNAKNTVYLQMNSLKPEDTAVYYCAARAYYARFLMGYWGQGTQVTVSS	high polyreactivity
QVQLVESGGGLVQAGGSLRLSCAASGSIFRSYAMGWYRQAPGKERELVAAISGRGSNTYYADSVKGRFTISRDNAKNTVYLQMNSLKPEDTAVYYCATRQWVFSHGYWGQGTQVTVSS	high polyreactivity
QVQLVESGGGLVQAGGSLRLSCAASGSIFRSYAMGWYRQAPGKERELVAAISRRGGSTYYADSVKGRFTISRDNAKNTVYLQMNSLKPADTAVYYCAADRTGPYDYWGQGTQVTVSS	high polyreactivity
QVQLVESGGGLVQAGGSLRLSCAASGSIFRTNAMGWYREAPGKERELVAAITGRGGSTYYADSVKGRFTISRDYAKNTVYLQMNSLKPEDTAVYYCAAAYGTWKFLATTEDYWGQGTQVTVSS	high polyreactivity

Sequence	polyreactivity (PSR sort gate)
QVQLVESGGGLVQAGGSLRLSCAASGSIFRTNAMGWYRQAPGKERELVAAISRRGSNTYYADSVKGRFTISRDNAKNTVYLLMNSMKPEDTAVYYCAADVSGSKYDYWGQGTQVTVSS	high polyreactivity
QVQLVESGGGLVQAGGSLRLSCAASGSIFRTYTMGWYRQAPGKERELVAAITRSGGRTFYADSVKGRFTISRDTAKNTVYLQMHSLKPEDTAVYYCAAKRTGDYDWGQGTQVTVSS	high polyreactivity
QVQLVESGGGLVQAGGSLRLSCAASGSIFRVNTLGWYRQAPGKERELVATISSGARTNYADSVKGRFTISRDNAKNTVDLQLNSLKPEDTAVYYCAADRSWGYWGRSRYDYWGQGTQVTVSS	high polyreactivity
QVQLVESGGGLVQAGGSLRLSCAASGSIFRVNTMGWYRQAPGKERELVAGITSRGGSTYYADSVKGRFTISRDNAKNTVYLQMNSLKPEDTAFYYCANRAYGTALYRGYGYWGQGTQVPVSS	low polyreactivity
QVQLVESGGGLVQAGGSLRLSCAASGSIFRVYALGWSRQAPGKERELVAAISSSGGSTYYADSVKGRFTISRDNAKNTVYLQMNSLKPEDTAVYYCAAEYDGPYTWVDYYYHYGYWGQGTQVTVSS	low polyreactivity
QVQLVESGGGLVQAGGSLRLSCAASGSIFRVYAMGRYRQAPGKEREFVAAISYSTGSTYADSVKGRFTISRDNAKNTVYLQMNSLKPEDTAVYYCNARLRYGSRDEYDYWGQGTQVTVSS	low polyreactivity
QVQLVESGGGLVQAGGSLRLSCAASGSIFRVYAMGWYRQAPGKEREFVAAITRRGTRTYYADSVKGRFTISRDNAKNTDYLQMNSLKPEDTAVYYCAAYFTDGLYEYWGQGTQVTVSS	low polyreactivity
QVQLVESGGGLVQAGGSLRLSCAASGSIFRVYAMGWYRQAPGKEREFVAAITRRGTRTYYADSVKGRFTISRDNAKNTVYLQMNSLKPEDTAVYYCAAYFTEGLYEYWGQGTQVTLSS	low polyreactivity
QVQLVESGGGLVQAGGSLRLSCAASGSIFRVYAMGWYRQAPGKERELVAVITWTGGITYYADSVKGRFTISRDNAKNTVYLQMNSLKPEDTAVYYCNADLLTFAIKAPTGFYYWGQGTQVTVSS	high polyreactivity
QVQLVESGGGLVQAGGSLRLSCAASGSIFRVYGMGWHRQAPGKERELVAAITWSGGSTYYADSVKGRFTISRDNAKNTVYLQMNSLKPEDTAVSYCAARARPRYYRPPYDYWGQGTQVTVSS	high polyreactivity
QVQLVESGGGLVQAGGSLRLSCAASGSIFRYNAMGWYRQAPGKERELVAAISGRGTSTYYADSVKGRFTISRDNAKNTVYLQMNSLKPEDTAVYYCAAVYFRTFLVEYYYWGQGTQVTVSS	high polyreactivity
QVQLVESGGGLVQAGGSLRLSCAASGSIFRYNAMGWYRQAPGKERELVAAITSGDSTYYADSVKGRFTISRDNAKNTVYLQMNSLKPEDTAVYYCAADLRYIYWSYYYWGQGTQVTVSS	low polyreactivity
QVQLVESGGGLVQAGGSLRLSCAASGSIFRYNTMGWYRPAPGKERELVATITRRGGSTYYADSVKGRFTISRDNAKNTVYLQMNSLKPEDTAVYYCIADNFGGPYNYWGQGTQVTVSS	low polyreactivity
QVQLVESGGGLVQAGGSLRLSCAASGSIFRYYAMGAYRQAPGKARELVAAISIRGGRTYYADSVKGRFTISRDNAKNTVYLQMNSLKPEDTAVYYCATAFGFTAKYYYWGQGTQVTVSS	high polyreactivity
QVQLVESGGGLVQAGGSLRLSCAASGSIFRYYAMGLYRQAPGKERVLVAAFSGSGGITLYADSVKVRFSISRDNAKNTVYLQMNCLKPEDTAVYFCATRPGTRPAYDYWGQGTQVTVSS	high polyreactivity
QVQLVESGGGLVQAGGSLRLSCAASGSIFRYYAMGWYRPAPGKERELVAAISSGGNTKYADSVKGRFTISRDNAKNTVYLQMNSLKPADTAVYYCNAAGKACGDYDYWGQGTQVTVSS	low polyreactivity
QVQLVESGGGLVQAGGSLRLSCAASGSIFRYYAMGWYRQAPGKERELVAAISSGDSTNYADSVKGRFTISRDNAKNTVYLQMNSLKPEDTAVYYCAAGVVRGPGYYRKYYYWGQGTQVTVSS	high polyreactivity
QVQLVESGGGLVQAGGSLRLSCAASGSIFRYYAMGWYRQAPGKERELVAAITRRGGSTYYADSVKGRFTISRDNAKNTVYLQMNSLKPEDTAVYYCAASHGYQYEYWGQGTQVTVSS	high polyreactivity
QVQLVESGGGLVQAGGSLRLSCAASGSIFRYYAMGWYRQAPGKERELVAAITSGGSTSYADSVKGRFTISRDNAKNTVYLQMNSLKPEDTAVYYCAKRSRHNKYYYWGQGTQVTVSS	high polyreactivity
QVQLVESGGGLVQAGGSLRLSCAASGSIFRYYDMGWYRQAPGKERELVAAISDSTGTTYYADSVKGRFTISRDNAKNTVYLQMNSLKPEDTAVYYCTAGYDPRYDYWGQGTQVTVSS	high polyreactivity

— the nanobody polyreactivity screen of Harvey et al. (2022)
